From the supplement of paper PMC9112550, “Optimization of the antimicrobial peptide Bac7 by deep mutational scanning” (BMC Biology, 2022)

System: Escherichia coli TOP10
Experiment: shrunken log2 fold change of peptide-encoding DNA abundance (4.5 h post-induction vs induction); higher = less antimicrobial activity (less host growth inhibition)
Conditions: time post-induction: 4.5 h; library: site-saturation at positions 5, 18, 19, 20
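Further: peptides expressed intracellularly from a pBAD plasmid library in pooled LB shake-flask culture, induced with 0.3% L-arabinose, DNA abundance read by NGS, three biological replicates, DESeq2 with apeglm shrinkage.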

Sequence | shrunken log2 fold change
RRIRVRPPRLPRPRPRPLHTPRP | -0.0261
RRIRVRPPRLPRPRPRPLIKPRP | -0.206
RRIRVRPPRLPRPRPRPLIMPRP | -0.502
RRIRVRPPRLPRPRPRPLKAPRP | 0.157
RRIRVRPPRLPRPRPRPLKLPRP | -0.337
RRIRVRPPRLPRPRPRPLKPPRP | -0.0393
RRIRVRPPRLPRPRPRPLLGPRP | -0.131
RRIRVRPPRLPRPRPRPLMAPRP | 0.049
RRIRVRPPRLPRPRPRPLPMPRP | 0.0885
RRIRVRPPRLPRPRPRPLQKPRP | 0.0697
RRIRVRPPRLPRPRPRPLRFPRP | 0.571
RRIRVRPPRLPRPRPRPLSHPRP | -0.32
RRIRVRPPRLPRPRPRPLTPPRP | 0.758
RRIRVRPPRLPRPRPRPLVTPRP | -0.348
RRIRVRPPRLPRPRPRPLYTPRP | -0.345
RRIRVRPPRLPRPRPRPMAKPRP | 0.0605
RRIRVRPPRLPRPRPRPMCFPRP | -0.178
RRIRVRPPRLPRPRPRPMEFPRP | -0.03
RRIRVRPPRLPRPRPRPMESPRP | 0.156
RRIRVRPPRLPRPRPRPMFMPRP | -0.562
RRIRVRPPRLPRPRPRPMHLPRP | -0.167
RRIRVRPPRLPRPRPRPMHMPRP | -0.164
RRIRVRPPRLPRPRPRPMIDPRP | -0.283
RRIRVRPPRLPRPRPRPMIGPRP | -0.112
RRIRVRPPRLPRPRPRPMLTPRP | -0.066

Sequence | shrunken log2 fold change
RRIRVRPPRLPRPRPRPMMYPRP | 0.00519
RRIRVRPPRLPRPRPRPMPEPRP | -0.192
RRIRVRPPRLPRPRPRPMPGPRP | 0.18
RRIRVRPPRLPRPRPRPMRKPRP | 4.33
RRIRVRPPRLPRPRPRPMTDPRP | 0.168
RRIRVRPPRLPRPRPRPMVMPRP | -0.0371
RRIRVRPPRLPRPRPRPMVRPRP | 0.00709
RRIRVRPPRLPRPRPRPMVSPRP | -0.188
RRIRVRPPRLPRPRPRPMWMPRP | 0.109
RRIRVRPPRLPRPRPRPMWPPRP | 0.0245
RRIRVRPPRLPRPRPRPMWQPRP | -0.0393
RRIRVRPPRLPRPRPRPNCRPRP | -0.0746
RRIRVRPPRLPRPRPRPNCTPRP | -0.0535
RRIRVRPPRLPRPRPRPNDEPRP | -0.352
RRIRVRPPRLPRPRPRPNECPRP | -0.0835
RRIRVRPPRLPRPRPRPNEGPRP | -0.00311
RRIRVRPPRLPRPRPRPNEVPRP | 0.00656
RRIRVRPPRLPRPRPRPNFEPRP | 0.178
RRIRVRPPRLPRPRPRPNFSPRP | -0.153
RRIRVRPPRLPRPRPRPNGHPRP | -0.0787
RRIRVRPPRLPRPRPRPNGMPRP | -0.32
RRIRVRPPRLPRPRPRPNHDPRP | -0.369
RRIRVRPPRLPRPRPRPNHGPRP | -0.0115
RRIRVRPPRLPRPRPRPNHWPRP | 0.203
RRIRVRPPRLPRPRPRPNIQPRP | -0.121

Sequence | shrunken log2 fold change
RRIRVRPPRLPRPRPRPNLIPRP | -0.149
RRIRVRPPRLPRPRPRPNMSPRP | -0.537
RRIRVRPPRLPRPRPRPNNQPRP | -0.483
RRIRVRPPRLPRPRPRPNPDPRP | -0.0161
RRIRVRPPRLPRPRPRPNPQPRP | 0.000771
RRIRVRPPRLPRPRPRPNQQPRP | 0.0476
RRIRVRPPRLPRPRPRPNRKPRP | -0.0231
RRIRVRPPRLPRPRPRPNRLPRP | 0.0105
RRIRVRPPRLPRPRPRPNTKPRP | 0.181
RRIRVRPPRLPRPRPRPNWVPRP | 0.213
RRIRVRPPRLPRPRPRPPAEPRP | 0.253
RRIRVRPPRLPRPRPRPPALPRP | 0.189
RRIRVRPPRLPRPRPRPPAVPRP | 0.523
RRIRVRPPRLPRPRPRPPDHPRP | 0.271
RRIRVRPPRLPRPRPRPPDNPRP | -0.00642
RRIRVRPPRLPRPRPRPPDTPRP | 0.166
RRIRVRPPRLPRPRPRPPFLPRP | 1.11
RRIRVRPPRLPRPRPRPPFNPRP | -0.303
RRIRVRPPRLPRPRPRPPFRPRP | 0.421
RRIRVRPPRLPRPRPRPPFSPRP | 0.15
RRIRVRPPRLPRPRPRPPGHPRP | 0.246
RRIRVRPPRLPRPRPRPPGNPRP | 0.17
RRIRVRPPRLPRPRPRPPHNPRP | 0.154
RRIRVRPPRLPRPRPRPPIHPRP | 0.042
RRIRVRPPRLPRPRPRPPIPPRP | 0.242
